Test results from US20210403591A1 (OSSIANIX, published 2021).
Where a chain is given by its changes, count along the chain named.

B1: Clone C VNAR-hFc fusion (Fc fusion, not shown: a dimerising Fc or GST)
chain: ARVDQTPQTITKETGESLTINCVLRDSNCALSSTYWYRKKSGSTNEENISKGGRYVETVNSGSKSFSLRINDLTVEDSGTYRCNVVQYPSYNNYFWCDVYGDGTAVTVN
notes: bivalent VNAR-Fc; also called Clone C-hFc
B2: Clone C variant 18 VNAR-hFc (Fc fusion, not shown: a dimerising Fc or GST)
chain: B1 chain with S90Q, N92P
notes: also called Clone C v18; Clone C var; 18
B3: Clone C variant 13 VNAR-hFc (Fc fusion, not shown: a dimerising Fc or GST)
chain: B1 chain with S90Q, Y91Q, N92D
notes: also called Clone C v13; Clone C var; 13
B4: 8D3 antibody (anti-mouse TfR-1 control; 8D3-hFc formatted antibody) (antibody, V domains shown)
VH: EVQLVESGGGLVQPGNSLTLSCVASGFTFSNYGMHWIRQAPKKGLEWIAMIYYDSSKMNYADTVKGRFTISRDNSKNTLYLEMNSLRSEDTAMYYCAVPTSHYVVDVWGQGVSVTVSS
VL: DIQMTQSPASLSASLEEIVTITCQASQDIGNWLAWYQQKPGKSPQLLIYGATSLADGVPSRFSGSRSGTQFSLKISRVQVEDIGIYYCLQAYNTPWTFGGGTKLELK

Experiments:
[1] = molecular target: T1, recombinant human TfR-1, His-tagged (Sino Biological 11020-H07H) (human, UniProt P02786 89-760); assay: SPR, His-captured TfR1
T1 construct: bought; His-tagged; also called hTfR1; hTfR-1
Procedure: (§1) Detailed binding kinetic analyses were performed to gain a better understanding of the relationship between affinity and brain penetration of the Clone C variants. Biacore surface plasmon resonance (SPR) analysis using immobilised mouse and human TfR-1 was performed for selected clones (Table 2).
(§2) Binding kinetics of VNAR-Fcs was determined by surface plasmon resonance (Biacore T200, GE Healthcare). CMS chips were coated with anti-His antibodies (His Capture Kit, GE Healthcare) as recommended by the manufacturer and human or mouse his-tagged TfR1 (SinoBiological) at 10 ug/mL in HBS-EP+ (GE Healthcare) was captured at flow rate 10 ul/min (contact time 120 s). […] A flow cell without TfR1 captured served as a reference. Sensorgrams were fitted and kinetic constants were determined using Biacore T200 Evaluation software. Chips were regenerated in 10 mM Glycine-HCl, pH 1.5 (contact time: 120 s at flow rate 30 ul/min).

[2] = molecular target: T2, recombinant mouse TfR-1, His-tagged (Sino Biological 50741-M07H) (mouse, UniProt Q62351 89-763); assay: SPR, His-captured TfR1
T2 construct: bought; His-tagged; also called mTfR1; mTfR-1
Procedure: as §1, §2

[3] = molecular target: T3, mTfR-1 P335A on Expi293 cells (mouse, UniProt Q62351 1-763); assay: FACS, transfected Expi293 cells
T3 construct: whole, on cells
Procedure: (§3) Transfected Expi293 cells were harvested and 2×10⁵ cells were transferred into V-bottom 96-well plate for staining. The cells were blocked in PBS containing 1% BSA (FACS buffer) for 10 min on ice, centrifuged to remove the buffer and 1 μl of 8D3-hFc formatted antibody, Clone C-hFc or Clone C variants 18 and 13 (Table 1), all at 1 mg/ml, was added to the wells. The cells were co-stained with mouse Tf-Alexa647 (Jackson ImmunoResearch). After 30 minutes on ice, the cells were washed and incubated with anti-hFc-PE (eBioscience) for 20 minutes on ice, washed again and resuspended in […] of FACS buffer containing 5 μl of propidium iodide (PI) to exclude dead cells from the analysis. The percentage of double-positive cells that stained with mTf and the tested antibody was determined on a CytoFlex cytometer (Beckman Coulter). The percentage of cells in the double positive quadrant (Q2) for WT mTfR-1 was used for normalization.

[4] = molecular target: T4, mTfR-1 S196A on Expi293 cells (mouse, UniProt Q62351 1-763); assay: FACS, transfected Expi293 cells
T4 construct: whole, on cells
Procedure: as §3

[5] = molecular target: T5, mTfR-1 Q200A on Expi293 cells (mouse, UniProt Q62351 1-763); assay: FACS, transfected Expi293 cells
T5 construct: whole, on cells
Procedure: as §3

[6] = molecular target: T6, mTfR-1 P325A on Expi293 cells (mouse, UniProt Q62351 1-763); assay: FACS, transfected Expi293 cells
T6 construct: whole, on cells
Procedure: as §3

[7] = molecular target: T7, mTfR-1 T228A on Expi293 cells (mouse, UniProt Q62351 1-763); assay: FACS, transfected Expi293 cells
T7 construct: whole, on cells
Procedure: as §3

[8] = molecular target: T8, mTfR-1 S255A on Expi293 cells (mouse, UniProt Q62351 1-763); assay: FACS, transfected Expi293 cells
T8 construct: whole, on cells
Procedure: as §3

[9] = molecular target: T9, mTfR-1 S225A on Expi293 cells (mouse, UniProt Q62351 1-763); assay: FACS, transfected Expi293 cells
T9 construct: whole, on cells
Procedure: as §3

[10] = molecular target: T10, mTfR-1 K191A on Expi293 cells (mouse, UniProt Q62351 1-763); assay: FACS, transfected Expi293 cells
T10 construct: whole, on cells
Procedure: as §3

[11] = molecular target: T11, mTfR-1 M202A on Expi293 cells (mouse, UniProt Q62351 1-763); assay: FACS, transfected Expi293 cells
T11 construct: whole, on cells
Procedure: as §3

[12] = molecular target: T12, mTfR-1 P227A on Expi293 cells (mouse, UniProt Q62351 1-763); assay: FACS, transfected Expi293 cells
T12 construct: whole, on cells
Procedure: as §3

[13] = molecular target: T13, mTfR-1 S231A on Expi293 cells (mouse, UniProt Q62351 1-763); assay: FACS, transfected Expi293 cells
T13 construct: whole, on cells
Procedure: as §3

[14] = molecular target: T14, mTfR-1 N277A on Expi293 cells (mouse, UniProt Q62351 1-763); assay: FACS, transfected Expi293 cells
T14 construct: whole, on cells
Procedure: as §3

[15] = molecular target: T15, mTfR-1 K226A on Expi293 cells (mouse, UniProt Q62351 1-763); assay: FACS, transfected Expi293 cells
T15 construct: whole, on cells
Procedure: as §3

[16] = molecular target: T16, mTfR-1 G330A on Expi293 cells (mouse, UniProt Q62351 1-763); assay: FACS, transfected Expi293 cells
T16 construct: whole, on cells
Procedure: as §3

[17] = molecular target: T17, mTfR-1 S328A on Expi293 cells (mouse, UniProt Q62351 1-763); assay: FACS, transfected Expi293 cells
T17 construct: whole, on cells
Procedure: as §3

[18] = molecular target: T18, mTfR-1 S275A on Expi293 cells (mouse, UniProt Q62351 1-763); assay: FACS, transfected Expi293 cells
T18 construct: whole, on cells
Procedure: as §3

[19] = molecular target: T19, mTfR-1 K195A on Expi293 cells (mouse, UniProt Q62351 1-763); assay: FACS, transfected Expi293 cells
T19 construct: whole, on cells
Procedure: as §3

[20] = molecular target: T20, mTfR-1 I378A on Expi293 cells (mouse, UniProt Q62351 1-763); assay: FACS, transfected Expi293 cells
T20 construct: whole, on cells
Procedure: as §3

[21] = molecular target: T21, mTfR-1 N253A on Expi293 cells (mouse, UniProt Q62351 1-763); assay: FACS, transfected Expi293 cells
T21 construct: whole, on cells
Procedure: as §3

[22] = molecular target: T22, mTfR-1 Q274A on Expi293 cells (mouse, UniProt Q62351 1-763); assay: FACS, transfected Expi293 cells
T22 construct: whole, on cells
Procedure: as §3

[23] = molecular target: T23, mTfR-1 Q327A on Expi293 cells (mouse, UniProt Q62351 1-763); assay: FACS, transfected Expi293 cells
T23 construct: whole, on cells
Procedure: as §3

[24] = molecular target: T24, mTfR-1 K380A on Expi293 cells (mouse, UniProt Q62351 1-763); assay: FACS, transfected Expi293 cells
T24 construct: whole, on cells
Procedure: as §3

T19 sequence (Q62351 whole entry K195A): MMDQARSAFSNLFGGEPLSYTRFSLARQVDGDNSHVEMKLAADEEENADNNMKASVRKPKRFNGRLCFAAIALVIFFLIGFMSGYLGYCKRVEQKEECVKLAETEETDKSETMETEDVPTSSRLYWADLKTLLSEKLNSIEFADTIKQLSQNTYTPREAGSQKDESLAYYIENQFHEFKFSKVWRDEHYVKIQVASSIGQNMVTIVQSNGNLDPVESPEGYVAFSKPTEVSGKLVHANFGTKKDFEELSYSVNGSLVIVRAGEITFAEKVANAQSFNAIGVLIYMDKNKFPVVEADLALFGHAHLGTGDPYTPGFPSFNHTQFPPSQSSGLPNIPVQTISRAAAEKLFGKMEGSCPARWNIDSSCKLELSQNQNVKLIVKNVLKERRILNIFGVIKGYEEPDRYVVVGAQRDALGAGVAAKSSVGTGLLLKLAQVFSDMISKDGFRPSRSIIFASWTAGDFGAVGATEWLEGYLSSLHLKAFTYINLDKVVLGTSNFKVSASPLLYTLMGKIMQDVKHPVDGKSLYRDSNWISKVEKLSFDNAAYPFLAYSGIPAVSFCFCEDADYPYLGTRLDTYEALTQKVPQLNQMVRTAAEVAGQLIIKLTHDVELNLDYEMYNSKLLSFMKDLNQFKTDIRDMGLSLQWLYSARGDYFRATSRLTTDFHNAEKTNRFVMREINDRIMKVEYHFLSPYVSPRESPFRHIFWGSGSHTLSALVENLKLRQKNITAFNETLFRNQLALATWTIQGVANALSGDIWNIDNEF
T7 sequence (Q62351 whole entry T228A): as the sequence (Q62351 whole entry K195A) above, with A195K, T228A counted along it
T24 sequence (Q62351 whole entry K380A): as the sequence (Q62351 whole entry K195A) above, with A195K, K380A counted along it
T6 sequence (Q62351 whole entry P325A): as the sequence (Q62351 whole entry K195A) above, with A195K, P325A counted along it
T3 sequence (Q62351 whole entry P335A): as the sequence (Q62351 whole entry K195A) above, with A195K, P335A counted along it
T23 sequence (Q62351 whole entry Q327A): as the sequence (Q62351 whole entry K195A) above, with A195K, Q327A counted along it
T1 sequence (P02786 89-760 limits assumed): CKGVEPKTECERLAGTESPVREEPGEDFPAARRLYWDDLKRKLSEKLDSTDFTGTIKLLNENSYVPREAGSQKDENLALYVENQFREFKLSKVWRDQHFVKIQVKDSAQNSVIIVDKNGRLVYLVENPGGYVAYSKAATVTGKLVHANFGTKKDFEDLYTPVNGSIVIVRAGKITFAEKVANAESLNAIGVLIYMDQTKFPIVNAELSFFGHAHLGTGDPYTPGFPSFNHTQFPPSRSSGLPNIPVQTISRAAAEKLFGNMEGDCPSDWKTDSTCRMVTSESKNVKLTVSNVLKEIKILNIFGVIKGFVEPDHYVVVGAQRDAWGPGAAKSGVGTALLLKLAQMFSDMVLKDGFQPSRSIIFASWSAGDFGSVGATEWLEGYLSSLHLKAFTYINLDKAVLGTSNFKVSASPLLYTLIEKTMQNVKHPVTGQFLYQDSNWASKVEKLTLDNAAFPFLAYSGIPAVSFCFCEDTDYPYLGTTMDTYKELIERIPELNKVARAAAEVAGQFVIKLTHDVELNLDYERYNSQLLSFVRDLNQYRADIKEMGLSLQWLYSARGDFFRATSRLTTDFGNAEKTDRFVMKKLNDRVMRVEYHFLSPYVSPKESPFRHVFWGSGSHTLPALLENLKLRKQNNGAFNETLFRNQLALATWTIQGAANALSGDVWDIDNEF
T10 sequence (Q62351 whole entry K191A): as the sequence (Q62351 whole entry K195A) above, with K191A, A195K counted along it
T18 sequence (Q62351 whole entry S275A): as the sequence (Q62351 whole entry K195A) above, with A195K, S275A counted along it
T11 sequence (Q62351 whole entry M202A): as the sequence (Q62351 whole entry K195A) above, with A195K, M202A counted along it
T22 sequence (Q62351 whole entry Q274A): as the sequence (Q62351 whole entry K195A) above, with A195K, Q274A counted along it
T5 sequence (Q62351 whole entry Q200A): as the sequence (Q62351 whole entry K195A) above, with A195K, Q200A counted along it
T9 sequence (Q62351 whole entry S225A): as the sequence (Q62351 whole entry K195A) above, with A195K, S225A counted along it
T21 sequence (Q62351 whole entry N253A): as the sequence (Q62351 whole entry K195A) above, with A195K, N253A counted along it
T12 sequence (Q62351 whole entry P227A): as the sequence (Q62351 whole entry K195A) above, with A195K, P227A counted along it
T15 sequence (Q62351 whole entry K226A): as the sequence (Q62351 whole entry K195A) above, with A195K, K226A counted along it
T13 sequence (Q62351 whole entry S231A): as the sequence (Q62351 whole entry K195A) above, with A195K, S231A counted along it
T8 sequence (Q62351 whole entry S255A): as the sequence (Q62351 whole entry K195A) above, with A195K, S255A counted along it
T4 sequence (Q62351 whole entry S196A): as the sequence (Q62351 whole entry K195A) above, with A195K, S196A counted along it
T14 sequence (Q62351 whole entry N277A): as the sequence (Q62351 whole entry K195A) above, with A195K, N277A counted along it
T20 sequence (Q62351 whole entry I378A): as the sequence (Q62351 whole entry K195A) above, with A195K, I378A counted along it
T16 sequence (Q62351 whole entry G330A): as the sequence (Q62351 whole entry K195A) above, with A195K, G330A counted along it
T2 sequence (Q62351 89-763 limits assumed, stated change not applied): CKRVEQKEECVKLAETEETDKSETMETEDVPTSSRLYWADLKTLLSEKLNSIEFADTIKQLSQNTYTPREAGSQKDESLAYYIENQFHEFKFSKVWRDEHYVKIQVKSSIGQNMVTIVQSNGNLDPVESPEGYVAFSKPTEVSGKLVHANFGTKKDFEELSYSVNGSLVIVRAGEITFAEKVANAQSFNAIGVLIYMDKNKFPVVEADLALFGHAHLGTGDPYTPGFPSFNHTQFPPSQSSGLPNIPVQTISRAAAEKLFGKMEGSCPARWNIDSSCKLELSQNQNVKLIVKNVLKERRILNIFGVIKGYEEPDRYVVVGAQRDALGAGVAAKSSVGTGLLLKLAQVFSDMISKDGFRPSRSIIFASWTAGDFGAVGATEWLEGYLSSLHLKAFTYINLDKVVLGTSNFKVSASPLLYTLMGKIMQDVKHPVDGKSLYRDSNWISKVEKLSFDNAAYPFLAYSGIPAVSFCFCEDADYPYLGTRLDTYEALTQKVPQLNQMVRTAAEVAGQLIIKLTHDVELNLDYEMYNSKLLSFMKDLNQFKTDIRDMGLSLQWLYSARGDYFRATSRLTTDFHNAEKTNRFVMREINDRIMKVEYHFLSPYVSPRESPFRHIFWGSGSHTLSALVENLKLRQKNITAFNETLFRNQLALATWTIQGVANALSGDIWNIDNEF
T17 sequence (Q62351 whole entry S328A): as the sequence (Q62351 whole entry K195A) above, with A195K, S328A counted along it

Row | Binder | Kd [1] [nM] | koff [1] [s⁻¹] | % double-positive cells vs WT [3] [%] | % double-positive cells vs WT [4] [%] | % double-positive cells vs WT [5] [%] | % double-positive cells vs WT [6] [%] | % double-positive cells vs WT [7] [%] | % double-positive cells vs WT [9] [%] | % double-positive cells vs WT [11] [%] | % double-positive cells vs WT [12] [%] | % double-positive cells vs WT [13] [%] | % double-positive cells vs WT [14] [%] | % double-positive cells vs WT [15] [%] | % double-positive cells vs WT [16] [%] | % double-positive cells vs WT [17] [%] | % double-positive cells vs WT [18] [%] | % double-positive cells vs WT [20] [%] | % double-positive cells vs WT [22] [%] | % double-positive cells vs WT [23] [%] | % double-positive cells vs WT [24] [%] | also measured
1 | B1 | 0.604 | 0.000145 | 169 | 123 | 90 | 148 | 68 | 180 | 166 | 77 | 283 | 137 | 157 | 307 | 50 | 97 | 142 | 182 | 83 | 193 | kon [1]: 240000 M⁻¹ s⁻¹; Kd [2]: 0.892 nM; koff [2]: 0.000191 s⁻¹; kon [2]: 214000 M⁻¹ s⁻¹; % double-positive cells vs WT [8]: 14%; % double-positive cells vs WT [10]: 51%; % double-positive cells vs WT [19]: 236%; % double-positive cells vs WT [21]: 26%
2 | B2 | 0.314 | 0.000113 | 138 | 104 | 171 | 175 | 45 | 163 | 153 | 20 | 173 | 155 | 91 | 231 | 20 | 136 | 80 | 229 | 119 | 162 | kon [1]: 360000 M⁻¹ s⁻¹; Kd [2]: 0.863 nM; koff [2]: 0.000269 s⁻¹; kon [2]: 312000 M⁻¹ s⁻¹; % double-positive cells vs WT [8]: 23%; % double-positive cells vs WT [10]: 25%; % double-positive cells vs WT [19]: 150%; % double-positive cells vs WT [21]: 10%
3 | B3 | 0.574 | 0.00017 | 75 | 47 | 72 | 83 | 65 | 73 | 103 | 47 | 101 | 84 | 77 | 87 | 22 | 54 | 115 | 84 | 85 | 81 | kon [1]: 297000 M⁻¹ s⁻¹; Kd [2]: 0.165 nM; koff [2]: 4.09e-05 s⁻¹; kon [2]: 248000 M⁻¹ s⁻¹
4 | B4 |  |  | 94 | 74 | 66 | 119 | 89 | 64 | 81 | 63 | 65 | 56 | 111 | 90 | 141 | 70 | 92 | 87 | 124 | 66 | % double-positive cells vs WT [8]: 56%; % double-positive cells vs WT [10]: 91%; % double-positive cells vs WT [19]: 63%; % double-positive cells vs WT [21]: 87%
